Results taken from paper PMC8042443, “PKCα-mediated phosphorylation of the diacylglycerol kinase ζ MARCKS domain switches cell migration modes by regulating interactions with Rac1 and RhoA” (The Journal of Biological Chemistry, 2021).

Assays:
[1] = molecular target: T1, GST fusion protein of constitutively active RhoA (RhoA^V14) (UniProt P61586 1-193, RhoA^V14); experiment: pull-down; GST fusion proteins immobilised on beads, incubated 1 to 2 h at 4 °C with lysates of MEFs expressing HA-tagged DGKζ constructs; washed at least four times with ice-cold lysis buffer; bound DGKζ detected by anti-HA immunoblot; in some panels cells were treated with vehicle, 100 nM PMA, or 1 μM Gö6976 before PMA; details: one partner purified
T1 construct: RhoA, constitutively active V14 mutant; cDNA from the Missouri S&T cDNA Resource Center, subcloned into pGEX-4T-3; also called GST-RhoA^V14; source: recombinant GST fusion (pGEX-4T-3), purified as described previously
T1 sequence (P61586 other isoform, or with tags, fused parts or gaps RhoA^V14 | RhoA^V14): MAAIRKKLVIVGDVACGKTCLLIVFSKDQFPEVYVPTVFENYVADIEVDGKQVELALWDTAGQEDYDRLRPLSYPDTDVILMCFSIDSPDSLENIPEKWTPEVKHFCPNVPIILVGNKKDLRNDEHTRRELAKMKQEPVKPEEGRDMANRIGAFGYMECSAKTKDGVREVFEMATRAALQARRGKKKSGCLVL

[2] = molecular target: T2, GST fusion protein of inactive RhoA (RhoA^N19) (UniProt P61586 1-193, RhoA^N19); experiment: as above; details: one partner purified
T2 construct: cDNA from the Missouri S&T cDNA Resource Center, subcloned into pGEX-4T-3; also called GST-RhoA^N19; GST-RhoN^19; source: recombinant GST fusion (pGEX-4T-3), purified as described previously
T2 sequence (P61586 other isoform, or with tags, fused parts or gaps RhoA^N19 | RhoA^N19): as the sequence (P61586 other isoform, or with tags, fused parts or gaps RhoA^V14 | RhoA^V14) above, with V14G, T19N counted along it

B1: HA-tagged wild-type diacylglycerol kinase ζ (enzyme)
chain: not shown
notes: diacylglycerol kinase ζ (DGKζ), wild type; also called HA-DGKζ; HA-DGKζ^WT; source: MEFs, infected with adenoviral vector or transiently transfected, in lysate
[1]
  fold change of binding after PMA against vehicle control: ~2 fold
[2]
  fold change of binding after PMA against vehicle control: ~2 fold
